Laboratory results as given in patent US20230272119A1 (MARENGO THERAPEUTICS, published 2023).
Positions count from the first letter of the chain named.

Experiments:
[1] = target: T1, α-activin receptors heavy-LgBiT (SEQ ID NO: 149); test: NanoBiT, HC-LgBiT:LC-SmBiT:competing LC 1:1:1; competing kappa LC m24 (SEQ ID NO: 115)
T1 construct: VH-CH1-linker-LgBiT; germline VH1-46*01

[2] = target: T1, α-activin receptors heavy-LgBiT (SEQ ID …); test: NanoBiT, HC-LgBiT:LC-SmBiT:competing LC 1:1:1; competing kappa LC m27 (SEQ ID NO: 118)
[3] = target: T1, α-activin receptors heavy-LgBiT (SEQ ID …); test: NanoBiT, HC-LgBiT:LC-SmBiT:competing LC 1:1:1; competing kappa LC m6 (SEQ ID NO: 97)
[4] = target: T1, α-activin receptors heavy-LgBiT (SEQ ID …); test: NanoBiT, HC-LgBiT:LC-SmBiT:competing LC 1:1:1; competing kappa LC m33 (SEQ ID NO: 124)
[5] = target: T1, α-activin receptors heavy-LgBiT (SEQ ID …); test: NanoBiT, HC-LgBiT:LC-SmBiT:competing LC 1:1:1; competing kappa LC m42 (SEQ ID NO: 133)
[6] = target: T1, α-activin receptors heavy-LgBiT (SEQ ID …); test: NanoBiT, HC-LgBiT:LC-SmBiT:competing LC 1:1:1; competing kappa LC m9 (SEQ ID NO: 100)
[7] = target: T1, α-activin receptors heavy-LgBiT (SEQ ID …); test: NanoBiT, HC-LgBiT:LC-SmBiT:competing LC 1:1:1; competing kappa LC m12 (SEQ ID NO: 103)
[8] = target: T2, α-TRAILR2 heavy-LgBiT (SEQ ID NO: 146); test: NanoBiT, HC-LgBiT:LC-SmBiT:competing LC 1:1:1; competing kappa LC m24 (SEQ ID NO: 115)
T2 construct: VH-CH1-linker-LgBiT; germline VH3-20*01

[9] = target: T2, α-TRAILR2 heavy-LgBiT (SEQ ID NO: 146); test: NanoBiT, HC-LgBiT:LC-SmBiT:competing LC 1:1:1; competing kappa LC m6 (SEQ ID NO: 97)
[10] = target: T2, α-TRAILR2 heavy-LgBiT (SEQ ID NO: 146); test: NanoBiT, HC-LgBiT:LC-SmBiT:competing LC 1:1:1; competing kappa LC m15 (SEQ ID NO: 106)
[11] = target: T2, α-TRAILR2 heavy-LgBiT (SEQ ID NO: 146); test: NanoBiT, HC-LgBiT:LC-SmBiT:competing LC 1:1:1; competing kappa LC m42 (SEQ ID NO: 133)
[12] = target: T2, α-TRAILR2 heavy-LgBiT (SEQ ID NO: 146); test: NanoBiT, HC-LgBiT:LC-SmBiT:competing LC 1:1:1; competing kappa LC m21 (SEQ ID NO: 112)
[13] = target: T2, α-TRAILR2 heavy-LgBiT (SEQ ID NO: 146); test: NanoBiT, HC-LgBiT:LC-SmBiT:competing LC 1:1:1; competing kappa LC m12 (SEQ ID NO: 103)
[14] = target: T2, α-TRAILR2 heavy-LgBiT (SEQ ID NO: 146); test: NanoBiT, HC-LgBiT:LC-SmBiT:competing LC 1:1:1; competing kappa LC m18 (SEQ ID NO: 109)
[15] = target: T3, α-CTLA4 heavy-hCHIg_Knob_Cys-GH_scFv (SEQ ID NO: 169); test: KappaSelect resin analysis of multispecific molecule 12, reduced gel; said to agree with lambda light chain pairing with the kappa heavy chain in molecule 4
T3 construct: full heavy chain, human Fc knob, C-terminal scFv; germline VH3-30*01; also called HCP2 of multispecific molecule 12

[16] = target: T4, α-CTLA4 heavy-hCHIg_Knob_Cys (SEQ ID NO: 168) (Homo sapiens (Human), UniProt P0DOX5 1-449 = IgG part); test: intact MS of papain-cleaved multispecific molecule 4; mispaired Fab observed (observed mass, Da)
T4 construct: full heavy chain, human Fc knob; Fab analysed after papain cleavage in the MS assay; germline VH3-30*01; also called HCP2 of multispecific molecules 3, 4, 5, 9

[17] = target: T5, α-TNFR10β heavy-hCHIg_Hole_Cys (SEQ ID NO: 177); test: intact MS of papain-cleaved multispecific molecule 4; Fab of this pairing observed (observed mass, Da)
T5 construct: full heavy chain, human Fc hole; Fab analysed after papain cleavage in the MS assay; also called α-TRAILR2 arm first chain; HCP1 of multispecific molecules 4, 6, 12

[18] = target: T6, α-CD221 heavy-hCHIg_Hole_Cys (SEQ ID NO: 180); test: intact MS of papain-cleaved multispecific molecule 5; Fab of this pairing observed (observed mass, Da)
T6 construct: full heavy chain, human Fc hole; Fab analysed after papain cleavage in the MS assay; germline VH1-69*01; also called HCP1 of multispecific molecule 5

[19] = target: T7, α-IGF1R heavy-LgBiT (SEQ ID NO: 116); test: NanoBiT, HC-LgBiT:LC-SmBiT:competing LC 1:1:1; competing lambda LC m54 (SEQ ID NO: 145)
T7 construct: VH-CH1-linker-LgBiT; germline VH3-23*01

[20] = target: T7, α-IGF1R heavy-LgBiT (SEQ ID NO: 116); test: NanoBiT, HC-LgBiT:LC-SmBiT:competing LC 1:1:1; competing lambda LC m66 (SEQ ID NO: 157)
[21] = target: T7, α-IGF1R heavy-LgBiT (SEQ ID NO: 116); test: NanoBiT, HC-LgBiT:LC-SmBiT:competing LC 1:1:1; competing lambda LC m60 (SEQ ID NO: 151)
[22] = target: T7, α-IGF1R heavy-LgBiT (SEQ ID NO: 116); test: NanoBiT, HC-LgBiT:LC-SmBiT:competing LC 1:1:1; competing lambda LC m72 (SEQ ID NO: 163)
[23] = target: T7, α-IGF1R heavy-LgBiT (SEQ ID NO: 116); test: NanoBiT, HC-LgBiT:LC-SmBiT:competing LC 1:1:1; competing lambda LC m69 (SEQ ID NO: 160)
[24] = target: T8, α-CSF2 heavy-LgBiT (SEQ ID NO: 101); test: NanoBiT, HC-LgBiT:LC-SmBiT:competing LC 1:1:1; competing lambda LC m48 (SEQ ID NO: 139)
T8 construct: VH-CH1-linker-LgBiT; germline VH1-3*01

[25] = target: T8, α-CSF2 heavy-LgBiT (SEQ ID NO: 101); test: NanoBiT, HC-LgBiT:LC-SmBiT:competing LC 1:1:1; competing lambda LC m66 (SEQ ID NO: 157)
[26] = target: T8, α-CSF2 heavy-LgBiT (SEQ ID NO: 101); test: NanoBiT, HC-LgBiT:LC-SmBiT:competing LC 1:1:1; competing lambda LC m72 (SEQ ID NO: 163)
[27] = target: T8, α-CSF2 heavy-LgBiT (SEQ ID NO: 101); test: NanoBiT, HC-LgBiT:LC-SmBiT:competing LC 1:1:1; competing lambda LC m69 (SEQ ID NO: 160)
[28] = target: T9, α-IL12β heavy-LgBiT (SEQ ID NO: 161); test: NanoBiT, HC-LgBiT:LC-SmBiT:competing LC 1:1:1; competing kappa LC m6 (SEQ ID NO: 97)
T9 construct: VH-CH1-linker-LgBiT; germline VH3-33*01

[29] = target: T9, α-IL12β heavy-LgBiT (SEQ ID NO: 161); test: NanoBiT, HC-LgBiT:LC-SmBiT:competing LC 1:1:1; competing kappa LC m15 (SEQ ID NO: 106)
[30] = target: T9, α-IL12β heavy-LgBiT (SEQ ID NO: 161); test: NanoBiT, HC-LgBiT:LC-SmBiT:competing LC 1:1:1; competing kappa LC m9 (SEQ ID NO: 100)
[31] = target: T9, α-IL12β heavy-LgBiT (SEQ ID NO: 161); test: NanoBiT, HC-LgBiT:LC-SmBiT:competing LC 1:1:1; competing kappa LC m12 (SEQ ID NO: 103)
[32] = target: T9, α-IL12β heavy-LgBiT (SEQ ID NO: 161); test: NanoBiT, HC-LgBiT:LC-SmBiT:competing LC 1:1:1; competing kappa LC m18 (SEQ ID NO: 109)

B1: α-activin receptors light-SmBiT (SEQ ID NO: 150) (other)
light: QSALTQPASVSGSPGQSITISCTGTSSDVGSYNYVNWYQQHPGKAPKLMIYGVSKRPSGVSNRFSGSKSGNTASLTISGLQAEDEADYYCGTFAGGSYYGVFGGGTKLTVLGQPKANPTVTLFPPSSEELQANKATLVCLISDFYPGAVTVAWKADGSPVKAGVETTKPSKQSNNKYAASSYLSLTPEQWKSHRSYSCQVTHEGSTVEKTVAPTECSGSSGGGGSGGGGSSGGVTGYRLFEEIL
notes: lambda light chain-linker-SmBiT; germline Vl2-14*01
Percent pairing [1]: 75%
Percent pairing [2]: 79%
Percent pairing [3]: 90%
Percent pairing [4]: 100%
Percent pairing [5]: 87%
Percent pairing [6]: 90%
Percent pairing [7]: 81%

B2: α-TRAILR2 light-SmBiT (SEQ ID NO: 147) (other)
light: SSELTQDPAVSVALGQTVRITCQGDSLRSYYASWYQQKPGQAPVLVIYGKNNRPSGIPDRFSGSSSGNTASLTITGAQAEDEADYYCNSRDSSGNHVVFGGGTKLTVLGQPKANPTVTLFPPSSEELQANKATLVCLISDFYPGAVTVAWKADGSPVKAGVETTKPSKQSNNKYAASSYLSLTPEQWKSHRSYSCQVTHEGSTVEKTVAPTECSGSSGGGGSGGGGSSGGVTGYRLFEEIL
notes: lambda light chain-linker-SmBiT; germline Vl3-19*01
Percent pairing [8]: 81%
Percent pairing [9]: 100%
Percent pairing [10]: 77%
Percent pairing [11]: 100%
Percent pairing [12]: 100%
Percent pairing [13]: 84%
Percent pairing [14]: 100%

B3: α-TRAILR2 light (SEQ ID NO: 148) (other)
light: SSELTQDPAVSVALGQTVRITCQGDSLRSYYASWYQQKPGQAPVLVIYGKNNRPSGIPDRFSGSSSGNTASLTITGAQAEDEADYYCNSRDSSGNHVVFGGGTKLTVLGQPKANPTVTLFPPSSEELQANKATLVCLISDFYPGAVTVAWKADGSPVKAGVETTKPSKQSNNKYAASSYLSLTPEQWKSHRSYSCQVTHEGSTVEKTVAPTECS
notes: unmodified lambda light chain; germline Vl3-19*01; also called LLCP of multispecific molecules 4, 6, 12
binding result [15]: binds
binding result [16]: binds
binding result [17]: binds

B4: α-CD221 light (SEQ ID NO: 136) (other)
light: B3 light with S33T, V44I, K50E, N52K, N88K, S92G, N95Q, V97L
notes: unmodified lambda light chain; germline Vl3-19*01; also called LLCP of multispecific molecule 5
binding result [18]: binds

B5: α-IGF1R light-SmBiT (SEQ ID NO: 117) (other)
light: DIQMTQSPSSLSASLGDRVTITCRASQGISSYLAWYQQKPGKAPKLLIYAKSTLQSGVPSRFSGSGSGTDFTLTISSLQPEDSATYYCQQYWTFPLTFGGGTKVEIKRTVAAPSVFIFPPSDEQLKSGTASVVCLLNNFYPREAKVQWKVDNALQSGNSQESVTEQDSKDSTYSLSSTLTLSKADYEKHKVYACEVTHQGLSSPVTKSFNRGECGSSGGGGSGGGGSSGGVTGYRLFEEIL
notes: kappa light chain-linker-SmBiT; germline Vk1-27*01
Percent pairing [19]: 84%
Percent pairing [20]: 95%
Percent pairing [21]: 81%
Percent pairing [22]: 96%
Percent pairing [23]: 100%

B6: α-CSF2 light-SmBiT (SEQ ID NO: 102) (other)
light: EIVLTQSPATLSVSPGERATLSCRASQSVGTNVAWYQQKPGQAPRVLIYSTSSRATGITDRFSGSGSGTDFTLTISRLEPEDFAVYYCQQFNKSPLTFGGGTKVEIKRTVAAPSVFIFPPSDEQLKSGTASVVCLLNNFYPREAKVQWKVDNALQSGNSQESVTEQDSKDSTYSLSSTLTLSKADYEKHKVYACEVTHQGLSSPVTKSFNRGECGSSGGGGSGGGGSSGGVTGYRLFEEIL
notes: kappa light chain-linker-SmBiT; germline Vk3D-20*01
Percent pairing [24]: 100%
Percent pairing [25]: 93%
Percent pairing [26]: 83%
Percent pairing [27]: 98%

B7: α-IL12β light-SmBiT (SEQ ID NO: 162) (other)
light: QSVLTQPPSVSGAPGQRVTISCSGSRSNIGSNTVKWYQQLPGTAPKLLIYYNDQRPSGVPDRFSGSKSGTSASLAITGLQAEDEADYYCQSYDRYTHPALLFGTGTKVTVLGQPKANPTVTLFPPSSEELQANKATLVCLISDFYPGAVTVAWKADGSPVKAGVETTKPSKQSNNKYAASSYLSLTPEQWKSHRSYSCQVTHEGSTVEKTVAPTECSGSSGGGGSGGGGSSGGVTGYRLFEEIL
notes: lambda light chain-linker-SmBiT; germline Vl1-44*01
Percent pairing [28]: 100%
Percent pairing [29]: 100%
Percent pairing [30]: 100%
Percent pairing [31]: 100%
Percent pairing [32]: 80%
